Assay results from publication PMC6988089 (Journal of the American Chemical Society, 2019).
Read-outs that look alike come from different tables or passages of the source.

How the values were obtained:
[1] = target: T1, wild-type CBX1 chromodomain (human, UniProt P83916 20-73); assay: fluorescence polarisation
CBX1 chromodomain F50A = CBX1 chromodomain F50A (human, UniProt P83916 20-73, F50A); assay: fluorescence polarisation
[2] = target: T1, wild-type CBX1 chromodomain

T1 sequence (P83916 20-73): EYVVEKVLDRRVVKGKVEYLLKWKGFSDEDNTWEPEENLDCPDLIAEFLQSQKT
Sequence of CBX1 chromodomain F50A (P83916 20-73 F45A): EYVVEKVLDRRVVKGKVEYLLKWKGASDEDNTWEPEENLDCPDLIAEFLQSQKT

| Binder | Kd (CBX1 chromodomain F50A) | further results |
| --- | --- | --- |
| ARTKQTARKSTGGKA (allyl-lysine at 9; tetramethylrhodamine (TAMRA) label, position not stated) [TAMRA-labeled allyl-modified H3K9 peptide] | – | Kd [1]: 106 ± 20 µM |
| ARTKQTARKSTGGKA (trimethyl-lysine at 9; tetramethylrhodamine (TAMRA) label, position not stated) [TAMRA-labeled H3K9me3 peptide] | 63.5 ± 6.2 µM | – |
| ARTKQTARKSTGGKA (pentenyl-lysine at 9; tetramethylrhodamine (TAMRA) label, position not stated) [TAMRA-labeled pentenyl-modified H3K9 peptide] | 14.1 ± 2.8 µM | – |
| ARTKQTARKSTGGKA (dimethyl-lysine at 9) [H3K9me2 peptide] | – | Kd [2]: 18.3 µM |
